# Patent US8383581B2, “Short-chain peptides as parathyroid hormone (PTH) receptor agonist” (Cadila Healthcare Limited, priority 2009, dated 2013)
# *1 amine or outer side, *2 acyl side, *3 side chain or, on linkers, in order; H or OH if unused. Where no end group is shown, it is not given here. [ ]: non-standard residue; d: D form. The star is where a group is joined. αMe‑APPA = 2-amino-2-methyl-5-phenylpentanoic acid, C[C@@](CCCc1ccccc1)(N[*:1])C(=O)[*:2]; Bip(2'-Et-4'-OMe) = CCc1cc(OC)ccc1-c1ccc(C[C@H](N)C(=O)O)cc1; Arg(NO2) = N=C(NCCC[C@H](N)C(=O)O)N[N+](=O)[O-]; αMePhe(2,6-F2) = C[C@](N)(Cc1c(F)cccc1F)C(=O)O; αMePhe(2-F) = C[C@](N)(Cc1ccccc1F)C(=O)O; αMeNle = CCCC[C@](C)(N[*:1])C(=O)[*:2]; αMe‑Bip(OMe) = α-methylated Bip(OMe); hhPhe = N[C@@H](CCCc1ccccc1)C(=O)O; hArg = N=C(N)NCCCC[C@H](N)C(=O)O; hCit = NC(=O)NCCCC[C@H](N)C(=O)O; αMeF = C[C@](N)(Cc1ccccc1)C(=O)O; Cit = NC(=O)NCCC[C@H](N)C(=O)O; αMeV = CC(C)[C@](C)(N)C(=O)O; NMeM = CN[C@@H](CCSC)C(=O)O; αMeM = CSCC[C@](C)(N)C(=O)O; Decanoyl = CCCCCCCCCC(=O)*; Ac6c = NC1(C(=O)O)CCCCC1; Nle = CCCC[C@H](N)C(=O)O; Orn = NCCC[C@H](N)C(=O)O; Ac5c = NC1(C(=O)O)CCCC1; Ac3c = NC1(C(=O)O)CC1; Aib = CC(C)(N)C(=O)O
# B1: Seq. ID. 813 (peptide)
# peptide: [Ac5c]V[Aib]EIQ[αMePhe(2,6-F2)][Nle]HQ[hArg]A[Cit][Bip(2'-Et-4'-OMe)][hhPhe]
# B2: Seq. ID. 23 (peptide)
# peptide: [Aib]V[Ac6c]EIQL[Nle]HQ[hArg][Aib]K[αMeF]
# B3: Seq. ID. 799 (peptide)
# peptide: [Ac5c]V[Aib]EIQL[Nle]HQ[αMePhe(2,6-F2)]A[Aib][Bip(2'-Et-4'-OMe)][hhPhe]
# B4: Seq. ID. 609 (peptide)
# peptide: [Ac3c]V[Ac3c]EIQLMHQ[hArg]AK[Bip(2'-Et-4'-OMe)][hhPhe]
# B5: Seq. ID. 751 (peptide)
# peptide: [Ac5c]V[Aib]EIQL[Nle]HQ[Orn]A[Aib][Bip(2'-Et-4'-OMe)][hhPhe]
# B6: Seq. ID. 694 (peptide)
# peptide: [Ac3c]V[Aib]EIQ[αMePhe(2,6-F2)][Nle]HQ[hArg]A[Arg(NO2)][Bip(2'-Et-4'-OMe)][hhPhe]
# B7: Seq. ID. 41 (peptide)
# peptide: [Ac3c]V[Aib]EIQ[αMePhe(2,6-F2)][Nle]HQ[hArg][Aib]K[αMeF]
# B8: Seq. ID. 860 (peptide)
# peptide: [Aib]V[Aib]EIQ[αMePhe(2,6-F2)][Nle]HQ[hCit]A[Cit][Bip(2'-Et-4'-OMe)][hhPhe]
# B9: Seq. ID. 905 (peptide)
# peptide: V[Aib]V[Aib]EIQL[Nle]HQ[hArg]A[hArg][Bip(2'-Et-4'-OMe)][αMe‑APPA]
# B10: Seq. ID. 637 (peptide)
# peptide: [Ac5c]V[Ac3c]EIQL[Nle]HQ[hArg]AK(Decanoyl)[Bip(2'-Et-4'-OMe)][hhPhe]
# B11: Seq. ID. 925 (peptide)
# peptide: V[Ac5c]V[Aib]EIQL[αMeNle]HQ[hArg]A[hArg][Bip(2'-Et-4'-OMe)][αMe‑APPA]
# B12: Seq. ID. 678 (peptide)
# peptide: [Ac3c]V[Aib]EIQL[NMeM]HQ[hArg]AK(Decanoyl)[Bip(2'-Et-4'-OMe)]
# B13: Seq. ID. 926 (peptide)
# peptide: [αMeV][Ac5c]V[Aib]EIQL[αMeM]HQ[hArg]A[hArg][Bip(2'-Et-4'-OMe)][αMe‑APPA]
# B14: Seq. ID. 647 (peptide)
# peptide: [Aib]V[Aib]EIQL[Nle]HQ[hArg]AK[Bip(2'-Et-4'-OMe)]
# B15: Seq. ID. 30 (peptide)
# peptide: [Aib]V[Ac5c]EIQ[αMePhe(2-F)][Nle]HQ[hArg]AK[αMeF]
# B16: Seq. ID. 781 (peptide)
# peptide: [Ac5c]V[Aib]EIQL[Nle]HQ[hCit]A[Cit][Bip(2'-Et-4'-OMe)][hhPhe]
# B17: Seq. ID. 712 (peptide)
# peptide: [Ac3c]V[Aib]EIQ[αMePhe(2-F)][Nle]HQ[hArg]A[Arg(NO2)][αMePhe(2,6-F2)][hhPhe]
# B18: Seq. ID. 733 (peptide)
# peptide: [Ac5c]V[Aib]EIQL[Nle]HQ[hArg]A[Cit][Bip(2'-Et-4'-OMe)][hhPhe]
# B19: Seq. ID. 841 (peptide)
# peptide: [Ac5c]V[Aib]EIQ[αMePhe(2,6-F2)][Nle]HQ[Orn][Aib][αMePhe(2,6-F2)][Bip(2'-Et-4'-OMe)][hhPhe]
# B20: Seq. ID. 899 (peptide)
# peptide: [Aib]V[Aib]EIQL[Nle]HQ[hArg]A[hArg][αMe‑Bip(OMe)][hhPhe]
# B21: Seq. ID. 820 (peptide)
# peptide: [Aib]V[Aib]EIQ[αMePhe(2,6-F2)][Nle]HQ[hArg][Aib][Cit][Bip(2'-Et-4'-OMe)][hhPhe]
# B22: Seq. ID. 872 (peptide)
# peptide: [Aib]V[Aib]EIQ[αMePhe(2,6-F2)][Nle]HQ[hCit][Aib][αMePhe(2,6-F2)][Bip(2'-Et-4'-OMe)][hhPhe]
# B23: Seq. ID. 886 (peptide)
# peptide: [Aib]V[Aib]EIQ[αMePhe(2,6-F2)][Nle]HQ[αMePhe(2,6-F2)][Aib][Aib][Bip(2'-Et-4'-OMe)][hhPhe]
# B24: Seq. ID. 598 (peptide)
# peptide: [Aib]V[Aib]EIQ[αMePhe(2,6-F2)][Nle]HQ[Aib][Aib][Arg(NO2)][αMePhe(2,6-F2)]
# Molecular target: T1, rat PTH-1R (rat PTHR endogenously expressed on UMR-106 rat osteosarcoma cells) (rat, UniProt P25961 27-591)
# T1 sequence (looked up): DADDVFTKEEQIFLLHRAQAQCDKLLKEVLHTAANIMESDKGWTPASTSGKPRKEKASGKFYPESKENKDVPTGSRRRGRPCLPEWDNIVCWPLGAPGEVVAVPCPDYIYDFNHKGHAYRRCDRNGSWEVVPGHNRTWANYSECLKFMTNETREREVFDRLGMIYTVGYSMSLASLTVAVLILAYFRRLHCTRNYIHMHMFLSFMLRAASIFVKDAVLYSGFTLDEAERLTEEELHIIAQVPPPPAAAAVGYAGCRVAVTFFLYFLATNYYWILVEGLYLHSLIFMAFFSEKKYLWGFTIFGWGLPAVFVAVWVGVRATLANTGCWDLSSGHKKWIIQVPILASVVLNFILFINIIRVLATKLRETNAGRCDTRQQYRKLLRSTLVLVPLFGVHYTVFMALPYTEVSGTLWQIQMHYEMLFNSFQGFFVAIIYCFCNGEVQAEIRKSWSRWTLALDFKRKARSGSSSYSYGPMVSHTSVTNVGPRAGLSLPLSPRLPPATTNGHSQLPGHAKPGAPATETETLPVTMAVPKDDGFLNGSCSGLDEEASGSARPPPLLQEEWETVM
# Test: cell-based or functional assay
Binder,"cAMP released with respect to control, 1 nM peptide, UMR-106 cells","cAMP released with respect to control, 10 nM peptide, UMR-106 cells","cAMP released with respect to control, 100 nM peptide, UMR-106 cells"
B1,82 percent of control,109 percent of control,110 percent of control
B2,12 percent of control,41 percent of control,69 percent of control
B3,38 percent of control,99 percent of control,106 percent of control
B4,39 percent of control,101 percent of control,120 percent of control
B5,34 percent of control,88 percent of control,116 percent of control
B6,19 percent of control,64 percent of control,80 percent of control
B7,26 percent of control,79 percent of control,97 percent of control
B8,22 percent of control,50 percent of control,70 percent of control
B9,39 percent of control,104 percent of control,120 percent of control
B10,36 percent of control,98 percent of control,110 percent of control
B11,16 percent of control,41 percent of control,52 percent of control
B12,48 percent of control,102 percent of control,112 percent of control
B13,18 percent of control,51 percent of control,72 percent of control
B14,56 percent of control,101 percent of control,126 percent of control
B15,19 percent of control,51 percent of control,80 percent of control
B16,16 percent of control,57 percent of control,75 percent of control
B17,15 percent of control,54 percent of control,69 percent of control
B18,36 percent of control,98 percent of control,110 percent of control
B19,32 percent of control,74 percent of control,100 percent of control
B20,38 percent of control,91 percent of control,120 percent of control
B21,14 percent of control,48 percent of control,66 percent of control
B22,19 percent of control,42 percent of control,59 percent of control
B23,31 percent of control,72 percent of control,100 percent of control
B24,38 percent of control,79 percent of control,119 percent of control
